The target of this experiment is membrane anchored IgE on transfected 293 cells (human) (UniProt P01854). As to the kind of experiment: cell-based or functional assay.
Chain of membrane anchored IgE on transfected 293 cells (human) (P01854 whole entry): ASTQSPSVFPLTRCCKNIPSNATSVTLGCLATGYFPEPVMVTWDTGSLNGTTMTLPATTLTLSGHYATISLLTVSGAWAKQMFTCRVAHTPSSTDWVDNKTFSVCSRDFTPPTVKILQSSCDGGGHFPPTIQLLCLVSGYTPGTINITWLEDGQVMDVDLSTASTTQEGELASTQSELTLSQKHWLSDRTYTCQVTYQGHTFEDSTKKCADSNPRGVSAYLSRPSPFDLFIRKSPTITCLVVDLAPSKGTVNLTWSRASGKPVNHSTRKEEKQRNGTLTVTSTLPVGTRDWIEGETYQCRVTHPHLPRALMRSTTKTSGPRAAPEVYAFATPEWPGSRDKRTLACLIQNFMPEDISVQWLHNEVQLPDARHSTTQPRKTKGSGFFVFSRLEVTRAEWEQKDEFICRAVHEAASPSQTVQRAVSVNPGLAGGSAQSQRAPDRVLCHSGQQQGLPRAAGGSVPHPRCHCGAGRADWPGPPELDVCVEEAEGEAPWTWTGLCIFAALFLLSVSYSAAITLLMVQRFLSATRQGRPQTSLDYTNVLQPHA

B1: D5 antibody (antibody, V domains shown)
VH: EVQLLESGGGLVQPGGSLRLSCAASGFTFSKYHMVWVRQAPGKGLEWVSSIGPSGGNTYYADSVKGRFTISRDNSKNTLYLQMNSLRAEDTATYYCARALGATFDYWGQGTLVTVSS
VL: DIQMTQSPLSLPVTLGQPASISCKSSQSLVYRDGITYLSWFQQRPGQSPRRLIYKVSNRDSGVPDRFSGSGSDSNFTLKISSVEAEDVGLYFCMQGSHWPFTFGPGTKVDIKR
In turn, B1 displayed an ADCC activity (% cytotoxicity, LDH release, PBMC effectors) below 70%.

The values are drawn from patent US20120141463A1.
